These are literature values, as cited in patent publication US20150316548A1, “PROGRANULIN AS MARKER FOR AUTOIMMUNE DISORDERS” (UNIVERSITAET DES SAARLANDES, priority 2012, published 2015).

One data set deals with TNF-α-receptors 1 and 2. As to conditions: mouse models, versus Etanercept; cited from earlier work.
The test system of data set [1] is cytotoxic effects of TNF-α. The conditions noted are these: in vitro; cited from earlier work.
For data set [2] the following is noted: progranulin, reference [1]; cited from earlier work.
The test system of a further data set is TNF-Tg/GRN−/− mice. The conditions noted are these: cited from earlier work.

B1: progranulin: secreted glycoprotein, precursor with N-terminal signal peptide and seven granulin motifs; SEQ ID NO: 1 (protein, listed as Homo sapiens)
chain: MWTLVSWVALTAGLVAGTRCPDGQFCPVACCLDPGGASYSCCRPLLDKWPTTLSRHLGGPCQVDAHCSAGHSCIFTVSGTSSCCPFPEAVACGDGHHCCPRGFHCSADGRSCFQRSGNNSVGAIQCPDSQFECPDFSTCCVMVDGSWGCCPMPQASCCEDRVHCCPHGAFCDLVHTRCITPTGTHPLAKKLPAQRTNRAVALSSSVMCPDARSRCPDGSTCCELPSGKYGCCPMPNATCCSDHLHCCPQDTVCDLIQSKCLSKENATTDLLTKLPAHTVGDVKCDMEVSCPDGYTCCRLQSGAWGCCPFTQAVCCEDHIHCCPAGFTCDTQKGTCEQGPHQVPWMEKAPAHLSLPDPQALKRDVPCDNVSSCPSSDTCCQLTSGEWGCCPIPEAVCCSDHQHCCPQGYTCVAEGQCQRGSEIVAGLEKMPARRASLSHPRDIGCDQHTSCPVGQTCCPSLGGSWACCQLPHAVCCEDRQHCCPAGYTCNVKARSCEKEVVSAQPATFLARSPHVGVKDVECGEGHFCHDNQTCCRDNRQGWACCPYRQGVCCADRRHCCPAGFRCAARGTKCLRREAPRWDAPLRDPALRQLL
modifications: misc (1)..(593) Progranulin
Take B1: the “strength of the anti-inflammatory effect” value with TNF-α-receptors 1 and 2 is “comparable to the effect of the synthetic TNF-blocker “Etanercept””. The “protection of cells from cytotoxic effects of TNF-α” value in data set [1] is listed as “protected cells in vitro from cytotoxic effects of TNF-α”. Moreover, in data set [2], the half-life result is “about 40 h”. Also, in the data set on TNF-Tg/GRN−/− mice, the “clinical response of spontaneous arthritis” value is on record as “rapid clinical recovery” and the “plasma levels of cartilage oligomeric matrix protein (COMP)” value is reported as “decreased”.
